Consider ten molecules from patent US20260028422A1 (CONCEPT TO MEDICINE BIOTECH, published 2026).

The target of assay [1] is T1, human MerTK expressed on cells (human, UniProt Q12866 21-999).
T1 construct: whole, on cells; also called CHO-K1-hMerTK; CHO-K1-MerTK
T1 sequence (looked up): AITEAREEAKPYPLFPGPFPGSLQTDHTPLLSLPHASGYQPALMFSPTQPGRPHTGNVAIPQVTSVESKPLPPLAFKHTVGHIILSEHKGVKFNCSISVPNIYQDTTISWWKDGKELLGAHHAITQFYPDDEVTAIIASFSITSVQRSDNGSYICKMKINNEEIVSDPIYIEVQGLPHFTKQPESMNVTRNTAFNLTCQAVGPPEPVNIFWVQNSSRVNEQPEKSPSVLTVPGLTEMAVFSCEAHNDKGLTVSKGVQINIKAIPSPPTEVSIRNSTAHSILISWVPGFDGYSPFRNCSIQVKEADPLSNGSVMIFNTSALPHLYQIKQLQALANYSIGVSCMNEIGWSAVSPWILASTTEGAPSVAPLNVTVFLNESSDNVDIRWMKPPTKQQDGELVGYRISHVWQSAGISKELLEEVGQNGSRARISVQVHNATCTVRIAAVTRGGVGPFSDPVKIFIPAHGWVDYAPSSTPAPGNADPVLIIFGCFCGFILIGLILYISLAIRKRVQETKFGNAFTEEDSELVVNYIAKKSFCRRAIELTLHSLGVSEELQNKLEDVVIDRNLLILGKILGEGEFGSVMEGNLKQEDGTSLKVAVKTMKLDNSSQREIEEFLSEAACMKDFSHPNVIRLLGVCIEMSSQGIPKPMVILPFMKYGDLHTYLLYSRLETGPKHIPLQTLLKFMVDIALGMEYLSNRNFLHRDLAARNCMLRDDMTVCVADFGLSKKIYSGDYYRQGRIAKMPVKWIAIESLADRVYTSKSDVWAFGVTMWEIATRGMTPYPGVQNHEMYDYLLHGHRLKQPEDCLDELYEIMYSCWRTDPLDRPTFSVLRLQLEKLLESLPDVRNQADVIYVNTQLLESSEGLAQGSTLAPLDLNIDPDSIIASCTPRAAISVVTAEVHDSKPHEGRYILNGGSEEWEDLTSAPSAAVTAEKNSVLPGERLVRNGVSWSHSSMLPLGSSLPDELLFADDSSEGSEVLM
Nature of the assay: FACS on CHO-K1 cells overexpressing human MerTK, MFI (AF488).

The target of assay [2] is T2, human MerTK-his protein (human, UniProt Q12866 21-505).
T2 construct: extracellular domain; also called hMerTK-His; human MerTK protein
T2 sequence (looked up): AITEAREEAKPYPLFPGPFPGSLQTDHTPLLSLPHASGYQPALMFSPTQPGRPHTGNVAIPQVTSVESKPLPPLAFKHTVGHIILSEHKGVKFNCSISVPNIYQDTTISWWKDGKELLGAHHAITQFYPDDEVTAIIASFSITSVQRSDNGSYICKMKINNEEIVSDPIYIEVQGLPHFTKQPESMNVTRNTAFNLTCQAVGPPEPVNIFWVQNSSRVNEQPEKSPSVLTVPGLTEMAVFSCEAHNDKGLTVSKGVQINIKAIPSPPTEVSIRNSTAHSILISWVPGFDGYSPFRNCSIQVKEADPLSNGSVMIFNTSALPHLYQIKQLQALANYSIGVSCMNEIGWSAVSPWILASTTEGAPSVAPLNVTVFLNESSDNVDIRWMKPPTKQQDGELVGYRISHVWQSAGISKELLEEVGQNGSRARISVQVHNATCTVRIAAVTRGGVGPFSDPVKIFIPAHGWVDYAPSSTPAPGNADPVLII
The assay can be described thus: ELISA, plate coated with human MerTK-his, OD 450nm. On the procedure:
To evaluate the binding activity, the chimeric mAbs were subjected to ELISA test. Briefly, 96-well plates were coated with human or cyno MerTK-his protein at 2 μg/mL in PBS, 100 μL/well at 4° C. overnight, then blocked with 150 μL/well of 1% BSA. Five-fold dilutions of MerTK antibodies starting from 20 nM were added to each well and incubated for 1 hour at room temperature. The plates were washed with PBS/Tween-20 and then incubated with goat anti-human IgG Fe antibody conjugated with Horse Radish Peroxidase (HRP) for 30 minutes (mins) at room temperature. After washing, the plates were developed with TMB substrate and subsequent stop solution was added to complete the reaction. The signal from each well was read by spectrophotometer at OD 450 nm.
To evaluate the antigen binding activity, the humanized antibodies were subjected to ELISA test as described before.
For orientation: An ELISA detects its analyte on a solid surface through an enzyme-linked reagent.

For assay [3], the target named is T2, human MerTK-his protein. The assay can be described thus: SPR Biacore 8K, antibody captured on Protein A chip, 50 nM antigen. The procedure: To explore whether the humanized antibodies could maintain their binding kinetics, affinity ranking were performed with Biacore™. The antibodies were captured with a Protein A chips. Human MerTK-his protein at 50 nM was injected over captured antibodies for 180 s at a flow rate of 30 μL/min. The antigen was allowed to dissociate for 600 s. The experiment was carried out on a Biacore™ 8K. Data analysis was carried out using Biacore™ 8K evaluation software.

B1: 265F11B5Hu-6 (antibody, V domains shown)
VH: QVQLVQSGAEVKKPGASVKVSCKASGYTFTTYDINWVRQAPGQGLEWMGWIYPRDGYTKYNEKFKGRVTMTTDTSTSTAYMELRSLRSDDTAVYYCTRGYYDNLYYFDYWGQGTTVTVSS
VL: EIVLTQSPDFQSVTPKEKVTITCSASSIISSNYFHWYQQKPDQSPKLLIKRTSNLASGVPSRFSGSGSGTDYTLTINSLEAEDAATYYCQQGRSVPLTFGQGTKLEIK
Consider B1, for which, in assay [1], the midpoint of the response, the EC50, lay at 0.17 nM. The EC50 – broadly, the concentration giving half of the maximal effect – in the assay with human MerTK-his protein [2] is 0.044 nM. Moreover, in the assay with human MerTK-his protein [3], the Kd (in general, the constant that tells how readily two partners part at equilibrium) is 1.4 nM; the koff (in general, the rate constant with which the complex falls apart) was 0.000278 s⁻¹; the kon (usually a measure of how fast the partners come together) amounted to 199000 M⁻¹ s⁻¹.

B2: 265F11B5Hu-5 (antibody, V domains shown)
VH: QVQLVQSGAEVKKPGASVKVSCKASGYTFTTYDINWVRQAPGQGLEWMGWIYPRDGYTKYNEKFKGRVTMTTDTSTSTAYMELRSLRSDDTAVYYCARGYYDNLYYFDYWGQGTTVTVSS
VL: EIVLTQSPDFQSVTPKEKVTITCSASSIISSNYFHWYQQKPDQSPKLLIKRTSNLASGVPSRFSGSGSGTDYTLTINSLEAEDAATYYCQQGRSVPLTFGQGTKLEIK
B2: the EC50 in assay [1] stood at 0.17 nM. The molecule further came in with an EC50 with human MerTK-his protein [2] of 0.062 nM. In the assay with human MerTK-his protein [3], this molecule had a Kd of 1.16 nM, a koff of 0.000232 s⁻¹ and a kon of 200000 M⁻¹ s⁻¹.

B3: 265F11B5Hu-2 (antibody, V domains shown)
VH: QVQLVQSGAEVKKPGASVKVSCKASGYTFTTYDINWVRQAPGQGLEWMGWIYPRDGYTKYNEKFKGRVTMTTDTSTSTAYMELRSLRSDDTAVYYCTRGYYDNLYYFDYWGQGTTVTVSS
VL: EIVLTQSPDFQSVTPKEKVTITCSASSIISSNYFHWYQQKPDQSPKLLIKRTSNLASGVPSRFSGSGSGTDFTLTINSLEAEDAATYYCQQGRSVPLTFGQGTKLEIK
In assay [1], B3 yielded an EC50 of 0.14 nM. The same molecule had an EC50 in the assay with human MerTK-his protein [2] of 0.054 nM. In the assay with human MerTK-his protein [3], this molecule had a Kd of 1.27 nM, a koff of 0.00025 s⁻¹ and a kon of 197000 M⁻¹ s⁻¹.

B4: 265F11B5Hu-9 (antibody, V domains shown)
VH: QVQLVQSGAEVKKPGASVKVSCKASGYTFTTYDINWVRQAPGQGLEWMGWIYPRDGYTKYNEKFKGRVTMTTDTSTSTAYMELRSLRSDDTAVYYCARGYYDNLYYFDYWGQGTTVTVSS
VL: EIVLTQSPDFQSVTPKEKVTITCSASSIISSNYFHWYQQKPDQSPKLLIYRTSNLASGVPSRFSGSGSGTDYTLTINSLEAEDAATYYCQQGRSVPLTFGQGTKLEIK
Turning to B4, in assay [1], the EC50 amounted to 0.19 nM. Also, the EC50 with human MerTK-his protein [2] was determined as 0.059 nM. In addition, in the assay with human MerTK-his protein [3], the Kd came out at 2.17 nM, the koff amounted to 0.000443 s⁻¹ and the kon is 204000 M⁻¹ s⁻¹.

B5: 265F11B5Hu-10 (antibody, V domains shown)
VH: QVQLVQSGAEVKKPGASVKVSCKASGYTFTTYDINWVRQAPGQGLEWMGWIYPRDGYTKYNEKFKGRVTMTTDTSTSTAYMELRSLRSDDTAVYYCTRGYYDNLYYFDYWGQGTTVTVSS
VL: EIVLTQSPDFQSVTPKEKVTITCSASSIISSNYFHWYQQKPDQSPKLLIYRTSNLASGVPSRFSGSGSGTDYTLTINSLEAEDAATYYCQQGRSVPLTFGQGTKLEIK
In turn, B5 yielded an EC50 in assay [1] of 0.19 nM. In the assay with human MerTK-his protein [2], this molecule registered an EC50 of 0.045 nM. In the assay with human MerTK-his protein [3], the Kd was 2.52 nM, the koff turned out to be 0.000463 s⁻¹ and the kon worked out at 184000 M⁻¹ s⁻¹.

B6: 265F11B5Hu-4 (antibody, V domains shown)
VH: QVQLVQSGAEVKKPGASVKVSCKASGYTFTTYDINWVRQAPGQGLEWIGWIYPRDGYTKYNEKFKGRATLAVDTSTSTAYMELRSLRSDDTAVYFCTRGYYDNLYYFDYWGQGTTVTVSS
VL: EIVLTQSPDFQSVTPKEKVTITCSASSIISSNYFHWYQQKPDQSPKLLIKRTSNLASGVPSRFSGSGSGTDFTLTINSLEAEDAATYYCQQGRSVPLTFGQGTKLEIK
Molecule B6 came in with an EC50 in assay [1] of 0.13 nM. For the same molecule, it took 0.068 nM to reach a half-maximal effect in the assay with human MerTK-his protein [2] (EC50). In the assay with human MerTK-his protein [3], this molecule registered a Kd of 0.856 nM, a koff of 0.000172 s⁻¹ and a kon of 201000 M⁻¹ s⁻¹.

B7: 265F11B5Hu-1 (antibody, V domains shown)
VH: QVQLVQSGAEVKKPGASVKVSCKASGYTFTTYDINWVRQAPGQGLEWMGWIYPRDGYTKYNEKFKGRVTMTTDTSTSTAYMELRSLRSDDTAVYYCARGYYDNLYYFDYWGQGTTVTVSS
VL: EIVLTQSPDFQSVTPKEKVTITCSASSIISSNYFHWYQQKPDQSPKLLIKRTSNLASGVPSRFSGSGSGTDFTLTINSLEAEDAATYYCQQGRSVPLTFGQGTKLEIK
Molecule B7 returned an EC50 in assay [1] of 0.16 nM. For the same molecule, in the assay with human MerTK-his protein [2], the EC50 stood at 0.042 nM. Also, in the assay with human MerTK-his protein [3], the Kd turned out to be 1.15 nM, the off-rate (koff) came to 0.000232 s⁻¹ and the kon was found to be 201000 M⁻¹ s⁻¹.

B8: 265F11B5Hu-3 (antibody, V domains shown)
VH: QVQLVQSGAEVKKPGASVKVSCKASGYTFTTYDINWVRQAPGQGLEWIGWIYPRDGYTKYNEKFKGRATMTTDTSTSTAYMELRSLRSDDTAVYFCTRGYYDNLYYFDYWGQGTTVTVSS
VL: EIVLTQSPDFQSVTPKEKVTITCSASSIISSNYFHWYQQKPDQSPKLLIKRTSNLASGVPSRFSGSGSGTDFTLTINSLEAEDAATYYCQQGRSVPLTFGQGTKLEIK
B8: in assay [1], the EC50 is 0.22 nM. The same molecule gave an EC50 with human MerTK-his protein [2] of 0.06 nM. Also, in the assay with human MerTK-his protein [3], the Kd was found to be 1.02 nM, the koff was 0.000204 s⁻¹ and the kon stood at 199000 M⁻¹ s⁻¹.

B9: 265F11B5Hu-8 (antibody, V domains shown)
VH: QVQLVQSGAEVKKPGASVKVSCKASGYTFTTYDINWVRQAPGQGLEWIGWIYPRDGYTKYNEKFKGRATLAVDTSTSTAYMELRSLRSDDTAVYFCTRGYYDNLYYFDYWGQGTTVTVSS
VL: EIVLTQSPDFQSVTPKEKVTITCSASSIISSNYFHWYQQKPDQSPKLLIKRTSNLASGVPSRFSGSGSGTDYTLTINSLEAEDAATYYCQQGRSVPLTFGQGTKLEIK
With B9, in assay [1], the concentration giving a half-maximal response (EC50) was determined as 0.14 nM. In the assay with human MerTK-his protein [2], this molecule registered an EC50 of 0.037 nM. Also, in the assay with human MerTK-his protein [3], the Kd amounted to 0.174 nM, the koff was 3.95e-05 s⁻¹ and the kon came to 227000 M⁻¹ s⁻¹.

B10: 265F11B5Hu-7 (antibody, V domains shown)
VH: QVQLVQSGAEVKKPGASVKVSCKASGYTFTTYDINWVRQAPGQGLEWIGWIYPRDGYTKYNEKFKGRATMTTDTSTSTAYMELRSLRSDDTAVYFCTRGYYDNLYYFDYWGQGTTVTVSS
VL: EIVLTQSPDFQSVTPKEKVTITCSASSIISSNYFHWYQQKPDQSPKLLIKRTSNLASGVPSRFSGSGSGTDYTLTINSLEAEDAATYYCQQGRSVPLTFGQGTKLEIK
B10: the EC50 in assay [1] turned out to be 0.14 nM. Besides, the EC50 in the assay with human MerTK-his protein [2] turned out to be 0.021 nM. In the assay with human MerTK-his protein [3], this molecule yielded a Kd of 0.719 nM, a koff of 0.000155 s⁻¹ and an association rate constant (kon) of 216000 M⁻¹ s⁻¹.
